Entries after “also recorded” stand apart in the source; their conditions may differ. Each block holds one compound with its values, some of them ahead of it. Non-standard residues stand in square brackets, D forms with d. Residues, ends and D or L forms follow the SMILES beside them. No end group written: not given here. *: point of attachment. Sta = CC(C)C[C@H](N)[C@@H](O)CC(=O)O; Mca = COc1ccc2c(CC(=O)*)cc(=O)oc2c1; DNP = 2,4-Dinitrophenyl, quencher; Isovaleryl = CC(C)CC(=O)*
What was measured:
[1] = biological target: T1, OMA1 (Rattus norvegicus, UniProt D3ZS74); experiment: OMA1 activity assay (OPA1 FRET substrate) in NRK cell lysates; format: biochemical; conditions: for decrease of OMA1 activity compared to the standard substrate sequence: modified 8-mer FRET substrate vs AFRATDHG
T1 construct: Renal cell lysates from normal rat kidney (NRK) epithelial cell line were prepared; endogenous in cells; host or cells: NRK-52E (ATCC CRL-1571), RIPA lysate, 5 µg protein per well
T1 sequence (D3ZS74 123-504): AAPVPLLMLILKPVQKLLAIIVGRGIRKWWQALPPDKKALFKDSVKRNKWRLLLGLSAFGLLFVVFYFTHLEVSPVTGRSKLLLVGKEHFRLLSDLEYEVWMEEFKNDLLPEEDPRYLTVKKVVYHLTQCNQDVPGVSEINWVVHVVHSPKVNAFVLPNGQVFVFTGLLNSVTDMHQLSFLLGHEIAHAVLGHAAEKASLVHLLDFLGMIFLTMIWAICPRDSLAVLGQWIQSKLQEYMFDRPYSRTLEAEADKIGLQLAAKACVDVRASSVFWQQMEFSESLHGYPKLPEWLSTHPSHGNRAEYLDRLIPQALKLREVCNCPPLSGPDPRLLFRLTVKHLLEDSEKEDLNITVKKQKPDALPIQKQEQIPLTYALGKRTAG
Method: Normal rat kidney cells (NRK-52E; ATCC No. CRL-1571) were maintained in a humidified incubator with 5% CO2, 95% air at 37° C. in DMEM containing 5% fetal bovine serum. Renal cell lysates from normal rat kidney (NRK) epithelial cell line were prepared by using radioimmunoprecipitation assay (RIPA) buffer (Pierce) with 1 mM PMSF (Sigma), 1.2 mM Na3VO4 (Sigma), 2.5 mM NaF (Sigma), 1 mM DTT (Sigma), 1× of Halt Protease & Phosphatase inhibitor cocktail (Thermo Scientific), and 5 mM EDTA (Thermo Scientific). Protein concentrations were determined by Coomassie Plus Protein Assay Reagent (Pierce).
Our OMA1 activity assay utilizes an 8-mer peptide derived from the cleavage sequence of OPA1, which is reported to be specific of OMA1 which is referred as the OPA1 FRET substrate. The peptide contains a fluorogenic MCA moiety on the N-terminus and a DNP quencher moiety on the C-terminus (FIG. 1), which was custom-synthesized by LifeTein LLC and handled accordingly to the manufacturer's instructions. Using a final 100 μl reaction volume and black, opaque 96 well plates (Costar), the reagents were added in the following order: 1) OMA1 activity assay buffer (50 mM of Tris/HCl, pH=7.5, 40 mM of KCl), 2) 5 μg of protein sample, 3)+/−200 μM of the zinc chelator N,N,N′,N′-Tetrakis (2-pyridylmethyl)ethylenediamine (TPEN) resuspended in 100% ethanol and lastly, 4) the OPA1 FRET substrate (5 μM final concentration; dissolved in DMSO). Fluorescence was recorded (excitation/emission of 320/405 nm) once per minute for 30 min at 37° C. using a fluorescent plate reader (SpectraMax M2e, Molecular Devices equipped with SoftMax Pro v5 software).
For the statistical analysis, the average fluorescence of the OPA1 FRET substrate alone was measured (<150 relative FLS units) and that value was subtracted from the sample values. The values were reported as a difference of TPEN inhibition [(sample X)−(sample X+TPEN)] where the slopes between 0-30 min were calculated (by linear regression) and each treatment were compared to appropriate controls. Thus, OMA1 activity was calculated by […] to enhance specificity.

[2] = biological target: T1, OMA1; experiment: as above; format: biochemical; conditions: untreated NRK cell lysates (5 μg), substrate 1-30 μM, Michaelis-Menten
[3] = biological target: T2, OMA1 (Homo sapiens, UniProt Q96E52); conditions: prior studies (refs 12, 24); cited from earlier work
T2 sequence (Q96E52 144-524): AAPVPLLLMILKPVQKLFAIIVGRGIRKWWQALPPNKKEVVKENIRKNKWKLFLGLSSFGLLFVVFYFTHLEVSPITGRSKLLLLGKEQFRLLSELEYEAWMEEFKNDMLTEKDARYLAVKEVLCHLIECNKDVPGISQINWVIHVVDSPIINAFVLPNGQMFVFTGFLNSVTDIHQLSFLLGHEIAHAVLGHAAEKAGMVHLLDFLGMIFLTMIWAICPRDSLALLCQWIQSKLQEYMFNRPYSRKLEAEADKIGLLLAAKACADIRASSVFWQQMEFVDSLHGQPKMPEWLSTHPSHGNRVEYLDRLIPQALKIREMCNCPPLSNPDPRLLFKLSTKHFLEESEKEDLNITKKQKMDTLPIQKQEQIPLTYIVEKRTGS

[4] = biological target: T1, OMA1; experiment: OMA1 activity assay in rat renal mitochondrial lysates after cold storage / transplantation; format: biochemical; conditions: cold storage alone or followed by transplant
Excerpt: Long-term renal function is compromised in patients receiving deceased donor kidneys which require cold storage exposure prior to transplantation. It is established that extended cold storage plus transplantation of kidneys induces renal mitochondrial dysfunction. To assay OMA1 activity under stress conditions known to induce mitochondrial dysfunction an exemplary reporter molecule of the invention was employed in mitochondrial lysates from control kidneys (CTRL), sham surgery (SH), cold storage alone (CS), or cold storage and transplantation (CS/TX) conditions.
Our OMA1 activity assay utilizes an 8-mer peptide derived from the cleavage sequence of OPA1, which is reported to be specific of OMA1 which is referred as the OPA1 FRET substrate. The peptide contains a fluorogenic MCA moiety on the N-terminus and a DNP quencher moiety on the C-terminus (FIG. 1), which was custom-synthesized by LifeTein LLC and handled accordingly to the manufacturer's instructions. […] Fluorescence was recorded (excitation/emission of 320/405 nm) once per minute for 30 min at 37° C. using a fluorescent plate reader (SpectraMax M2e, Molecular Devices equipped with SoftMax Pro v5 software).

[5] = system: OMA1; experiment: Live-cell OMA1 activity assay with mitochondrial targeted FRET peptide; format: cell-based, rat; conditions: NRK-52E cells, FRET peptide 10 μM, 4 hr, antimycin A 50 nM, 30 min, preliminary
Excerpt: Live-Cell OMA1 activity assay: To deliver the FRET OMA1 peptide to mitochondria in living cells, we utilized a modified short Szeto-Schiller (SS) peptide sequence1 attached to the amino terminus of the 8 amino acid FRET sequence (custom synthesized by LifeTein) (FIG. 5A). […] Small molecule/peptide library subsets or novel peptides will be screened for inhibitory activity using this live-cell OMA1 assay.
Live-cell OMA1 activity assay preliminary results: To deliver the FRET peptide to mitochondria in living cells, we have used a modified short Szeto-Schiller (SS) mitochondrial targeting peptide sequence1 (d-arginine, dimethyl tyrosine, ornithine, tryptophan) attached to the amino terminus of the eight amino acid FRET sequence (FIG. 5A). Normal rat kidney (NRK-52E; ATCC No. CRL-1571) cells were plated on black 96-well cell culture plates (10,000 cells/well). The next day, the cell permeable peptide was added to cells (10 μM; 4 hr; 37° C.) followed by exposure to ATP depletion/antimycin A (50 nM; 30 min) and OMA1 activity measured (ex/em 320/405) using a plate reader. […] Future studies will optimize the mitochondrial targeting sequence so that the highest efficiency of mitochondrial localaization without altering mitochondrial oxidant levels will be achieved, which we predict will yield the highest sensitivity for the live-cell OMA1 activity assay.

[6] = Table 1, average slope over 30 min compared to AFRATDHG substrate, n = 3
[7] = Table 2, slope over 30 min, % comparison to AFRATDHG, 2-3 experiments/substrate

- OMA1 Activity [1, 6]: 100%
- OMA1 Activity [1, 7]: 100%
- Vmax for cleavage of the OPA1 FRET substrate [2]: 34.6 FLS/min
- Km ([2]; read-out: Km for cleavage of the OPA1 FRET substrate): 7.1 µM
Compound: AFRATDHG (Mca-AFRATDHG-{DNP}) [MCA-AFRATDHG-DNP, eight amino acid OPA1 S1-site peptide with MCA fluorophore on the N-terminus and DNP quencher on the C-terminus]

- fluorescence of FRET peptide without R-A sequence ([1]; FRET peptide downstream of cleavage site): abolished fluorescence
- OMA1 Activity [1, 6]: 2.71%
- OMA1 Activity [1, 7]: 2.71%
Compound: ATDHGSES (Mca-ATDHGSES; not fully specified (C-terminus); also: FRET fluorophore and quencher) [eight amino acid FRET peptide from OPA1 downstream of the cleavage site, no RA motif]

Compound: pefabloc/TPCK
- prevention of OMA1-dependent OPA1 cleavage [3]: do not prevent OMA1-dependent OPA1 cleavage

- OMA1 Activity [1, 7]: 61%
- decrease of OMA1 activity compared to the standard substrate sequence [1]: ~40%
Compound: AFKATDHG (Mca-AFKATDHG; not fully specified (C-terminus); also: FRET fluorophore and quencher) [FRET substrate with Arg changed to Lys]

Compound: CC(C)CC(=O)N[C@H](C(=O)N[C@H](C(=O)N[C@@H](CC(C)C)[C@@H](O)CC(=O)N[C@@H](C)C(=O)N[C@@H](CC(C)C)[C@@H](O)CC(=O)O)C(C)C)C(C)C [pepstatin A] (Isovaleryl-VV[Sta]A[Sta]-OH)
- prevention of OMA1-dependent OPA1 cleavage [3]: do not prevent OMA1-dependent OPA1 cleavage

Compound: c1ccc(CN(CCN(Cc2ccccn2)Cc2ccccn2)Cc2ccccn2)nc1 [TPEN, N,N,N′,N′-Tetrakis (2-pyridylmethyl)ethylenediamine]
- effect on OMA1 activity (slope, FLS/min) ([1]; NRK cell lysates with TPEN (200 μM in method) vs untreated lysates): reduced OMA1 activity; also recorded: dramatically decreased fluorescence
- effect on reporter fluorescence (FLS) increase [4]: effectively inhibits FLS increase; also recorded: effectively inhibits the reporter molecule activation

Compound: antimycin A
- OMA1 activity (fluorescence) in live cells [5]: increased OMA1 activity
- OMA1 activity (fluorescence) in live cells ([5]; listed as AMA): induces OMA1 activity

Compound: CCOC(=O)[C@H]1O[C@@H]1C(=O)N[C@@H](CC(C)C)C(=O)NCCC(C)C [E64D]
- prevention of OMA1-dependent OPA1 cleavage [3]: do not prevent OMA1-dependent OPA1 cleavage

Compound: CCCCC[C@H](CC(=O)NO)C(=O)N[C@H](C(=O)N1CCC[C@H]1CO)C(C)C [actinonin]
- effect on OMA1 activity (slope, FLS/min) ([1]; NRK cell lysates, 0.5-1 μM, vs untreated lysates): neither the broad-spectrum MMP inhibitor, batimastat (0.5-1 μM), or the meprin A inhibitor, actinonin (0.5-1 μM), altered OMA1 activity
- effect on OMA1 activity (slope, FLS/min) ([1]; NRK cell lysates, 0.5-1 μM, vs untreated lysates, listed as Actinonin): Only TPEN reduced OMA1 activity

- OMA1 Activity [1, 7]: 35%
- decrease of OMA1 activity compared to the standard substrate sequence [1]: 65%
Compound: AARAAAAA (Mca-AARAAAAA; not fully specified (C-terminus); also: FRET fluorophore and quencher, sites not given here) [FRET substrate with RA motif flanked by alanine residues]

Source: patent publication US10739331B2, “OMA1 activity assay” (BioVentures, LLC, priority 2017, dated 2020)
